{"source": "paper PMC6981161", "key": {"[1]": {"biological_target": "proteins of hBMECs (protein extract coated in microtiter wells, ELISA with recombinant ligands) (human (endogenous in hBMECs))", "experiment": "ELISA; protein extract of hBMECs coated in microtiter wells, blocked; recombinant ligand added; detected with HisProbe-HRP conjugate and TMB substrate, absorbance at 450 nm; semi-quantitative"}, "[2]": {"biological_target": "proteins of hBMECs (protein extract coated in microtiter wells, ELISA with synthetic analogues) (human (endogenous in hBMECs))", "experiment": "ELISA; protein extract of hBMECs coated in microtiter wells, blocked; biotinylated synthetic peptide added; detected with streptavidin-HRP conjugate; semi-quantitative"}}, "note": "Where no end group is shown, it is not given here. The star is where a group is joined. Biotin = O=C1N[C@H]2[C@H](CS[C@H]2CCCCC(=O)*)N1", "data": [{"molecule": "recombinant NadA (neisserial adhesin A) of Neisseria meningitidis, globular domain with the first coiled-coil structure (domain or fragment)", "values": [{"measurement": "absorbance at 450 nm (absorbance at 450 nm)", "setting": "[1]", "value": 1.14}]}, {"molecule": "recombinant domain III of protein E of West Nile virus (domain or fragment)", "values": [{"measurement": "absorbance at 450 nm (absorbance at 450 nm)", "setting": "[1]", "value": 2.2}]}, {"molecule": "GTTYGVCSK(Biotin)", "note": "[DIII-1 synthetic analogue (…-biotin)]", "values": [{"measurement": "absorbance", "setting": "[2]", "value": 2.06, "unit": "absorbance"}]}]}
